The target in assay [1] is T1, CAL PDZ domain (CALP) (UniProt Q9HD26 278-362). Description: fluorescence polarization competition. (Fluorescence polarisation rises when a labelled molecule tumbles more slowly, as on binding a larger partner.)
For assay [2], the target named is T1, CAL PDZ domain (CALP). Briefly: fluorescence polarization competition; reference: iCAL35 with CAL. How it is done:
(§1) The experimental inhibitory constants of top- and poorly-ranked peptide sequences from the K* CAL-CFTR design were experimentally determined. […] The corresponding N-terminally acetylated peptides were purchased from NEO Bio-Science (Cambridge, Mass.) and the Kᵢ values for the peptides were detected using fluorescence polarization. Briefly, the CAL PDZ domain was incubated with a labeled peptide of known binding affinity. Each peptide inhibitor was serially diluted and the protein-peptide mixture was added to each dilution. Finally, the amount of competitive inhibition was tracked using residual fluorescence polarization.
(§2) The Kᵢ value for each peptide hexamer was determined using fluorescence polarization.

For assay [3], the target named is T1, CAL PDZ domain (CALP). Briefly: fluorescence polarization competition with a labeled peptide. Here is the method:
as §1, §2

For assay [4], the target named is T1, CAL PDZ domain (CALP). Briefly: fluorescence polarization competition; reference: wild-type CFTR sequence with CAL. Here is the method: as §1, §2
The target of assay [5] is T1, CAL PDZ domain (CALP). Description: FP competition assay.
Assay [6] addresses T1, CAL PDZ domain (CALP). Description: calculated from Ki values (FP); reference: the same peptide with the NHERF PDZ domains.
The target of assay [7] is T1, CAL PDZ domain (CALP). Description: calculated from Ki values (FP); reference: the same peptide with TIP-1.
For assay [8], the target named is T1, CAL PDZ domain (CALP). Description: fluorescence polarization; reference: iCAL42 with the CAL PDZ domain.
The target of assay [9] is T2, Tax-interacting protein-1 (TIP-1), recombinant, tag cleaved (UniProt O14907 1-124).
T2 construct: Used for FP and crystallization; also called TIP-1 PDZ domain
T2 sequence (looked up): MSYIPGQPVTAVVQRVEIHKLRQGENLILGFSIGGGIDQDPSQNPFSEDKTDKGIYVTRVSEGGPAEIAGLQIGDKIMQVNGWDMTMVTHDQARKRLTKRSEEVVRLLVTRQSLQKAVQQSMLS
Description: FP displacement assay. Here is the method: (§3) For TIP-1 peptide array experiments, His₁₀ tagged (uncleaved) protein was used to facilitate quantitation.
In order to quantitate the impact of the P⁻⁵ Leu substitution and to assess inhibitory potential at high peptide concentrations, FP displacement assays were performed.

Assay [10] addresses T3, His10 tagged (uncleaved) TIP-1 (UniProt O14907 1-124).
T3 construct: also called TIP-1 (peptide array experiments); not shown: N-terminal His10 tag
T3 sequence: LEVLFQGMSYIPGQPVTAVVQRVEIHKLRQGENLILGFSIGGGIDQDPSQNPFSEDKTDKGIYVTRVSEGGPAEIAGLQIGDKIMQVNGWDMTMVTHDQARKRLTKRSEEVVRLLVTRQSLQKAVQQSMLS
Description: CombLib peptide array.
From the text: as §3

The target in assay [11] is T1, CAL PDZ domain (CALP). Briefly: calculated from Ki values (FP); reference: the same peptide with the highest affinity alternative among the NHERF and TIP-1 PDZ domains.
The target of assay [12] is T2, Tax-interacting protein-1 (TIP-1), …. Briefly: FP displacement assay, reporter F*-iCAL36.
In assay [13] the target is T1, CAL PDZ domain (CALP). Briefly: calculated from Ki values (FP); reference: the same peptide with N2P2.

Where no end group is shown, it is not given here. [ ]: non-standard residue; d: D form. The star is where a group is joined. Biotin = O=C1N[C@H]2[C@H](CS[C@H]2CCCCC(=O)*)N1; Ahx = NCCCCCC(=O)O

B1: iCAL35 (peptide)
peptide: Ac-WQTSII
notes: the corresponding N-terminally acetylated peptides were bought; also called WQTSII; best known peptide hexamer
As usually defined, the Ki is the equilibrium dissociation constant of an inhibitor or competing ligand from its target. On to B1, for which the Ki in [1] was found to be 14.8 µM. Turning to Ac-WQVTRV (also called WQVTRV) [kCAL01], the “fold improvement over iCAL35” value in assay [2] turned out to be 7 fold. The molecule further displayed a Ki in [3] of 2.1 µM. In assay [4], the fold higher affinity is 331 fold.

B2: BT-iCAL42 (peptide)
peptide: Biotin-W[dR]FKKANSRLPTSII
notes: also called biotinylated analog of iCAL42
In assay [5], B2 registered an inhibitory constant (Ki) of 9.2 µM. Take ANSRWPTSII (also called PRC 36; iCa136) [iCAL36]: the values for the ΔΔG in assay [6] and in assay [7] were -3.3 kcal/mol and 1 kcal/mol, respectively.

B3: F*-iCAL42 (peptide)
peptide: {Fluorescein-Ahx}-ANSRLPTSII
notes: also called N-terminally fluoresceinated version of iCAL42
For the molecule B3, the “fold enhancement in CAL affinity” value in assay [8] was determined as 5 fold. Consider ANSRAPTSII [P^-5 alanine mutant of iCAL36 (ANSRAPTSII)], for which, in assay [9], the binding result is “no binding”. With ANSRLPTSII (also called unlabeled iCAL42) [iCAL42], the binding result in assay [10] is recorded as “no binding”; in [9], “no binding (tested: up to millimolar peptide concentrations)”. In addition, the ΔΔG in assay [11] is -2.5 kcal/mol. On to ANGLMQTSKL [somatostatin receptor subtype 5 (SSR5) C-terminal peptide], for which, in assay [12], the Ki came out at 130 µM. Further, in assay [13], the ΔΔGCAL-best is 0.1 kcal/mol.

The record behind these values is patent US20150250848A1 (TRUSTEES OF DARTMOUTH COLLEGE, published 2015).
